# Test results taken from the supplement of paper PMC6755084.
# B1: minF1; a variant is named by its letters at N, in order (parent)
# chain: GAGACCGCAACTGAAAAGTTGTTNNNNAANNNNNGGNTNAATTTCTGCACGTAGAAGCAAAAGGC
# Variants of: B1
# Assay: fraction ligated after 30 min (ligated reads / total reads); higher = more ligase activity
# Conditions: with F1*subA RNA substrate (template-directed ligation), 42 °C
# Procedure, shortened: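 Templates from an oligo pool encoding minimized ligase ribozyme variants were amplified by PCR, transcribed with T7, and purified on gels. Gel electrophoresis separated ligated from unligated RNAs, which were then reverse transcribed using barcoded primers and sequenced on a MiSeq, keeping core bases with quality ≥30. For each variant, fraction ligated equals ligated reads divided by total reads.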
row,Variant,fraction ligated
1,AAGATGATGTG,0.0055
2,TCAGTGGAGTG,0.00343
3,TCAATGGATTG T23A,0.0162
4,ACAGATGGAGT G35T,0.014
5,TAAAGGATGTG T23A A29T,0.00526
6,AAGATGGATTG,0.00494
7,TAAAGGATGTG A29T,0.00359
8,TCGAGGATGTG T23A A29T,0.013
9,TCAGATGATTG,0.00341
10,AAGATGGATGT A40G,0.00604
11,TCAGATGGAGT T23A G35T T38G A40T A41G,0.000947
12,TCAGTGGATGT,0.00577
13,TAGAGGATGTG A29T,0.0101
14,TCAATGGAGTG,0.00287
15,TCAGTGATGTG,0.00229
16,ACGAGGATGTG,0.00409
17,ACAGATGGAGT,0.00252
18,TAGATGGTGTG T23A,0.00156
19,AAGATGGAGTG,0.000852
20,TCAGATGTGTG T23A,0.00194
21,ACAGAGGATGT A40G,0.00295
22,TCAGATGGAGT A40G,0.00532
23,CAAAGGATGTG T23A A29T,0.00472
24,TCAATGATGTG T23A,0.00128

row,Variant,fraction ligated
1,AAAAGGATGTG A29T,0.00415
2,TCAGATGAGTG,0.00318
3,TCAGATGGTTG T23A,0.00182
4,AAGAGGATGTG,0.00256
5,ACAGATGATGT A40G,0.00654
6,TCAATGGTGTG T23A,0.00318
7,ACAGATGGTGT,0.002
8,TCAGATGATTG T23A,0.00216
9,ACGATGGATGT A40G,0.0424
10,TCAGATGGAGT T23A G35T T38G A40T,0.00248
11,TCGAGGATGTG,0.00582
12,TCAGGGATGTG A29T,0.00613
13,TCAGATGGAGT G35T A40G,0.0226
14,TCAGATGGAGT,0.00402
15,ACAGATGGAGT G35T T38G A40T A41G,0.000565
16,TCAGTGGTGTG,0.00248
17,TCAGATGGATG,0.00236
18,ACAGTGGTGTG,0.00205
19,TCAGAGGATTG,0.00228
20,TCAGATGATGT A40G,0.011
21,TCAGAGGATTG T23A,0.00302
22,TCAGATGGAGT G35T T38G A40T A41G,0.000378
23,TCAGATGGTTG,0.00217
24,ACAATGGATGT A40G,0.0105

row,Variant,fraction ligated
1,TAGATGGATGT,0.00222
2,ACAGATATGTG,0.000749
3,TCAGATGGGTG T23A,0.00356
4,TCAGATGGTGT,0.00178
5,TCAATGGATGT T23A,0.00522
6,TCGATGGATGT A40G,0.0635
7,TAGATGGTGTG,0.0039
8,ACAATGGAGTG,0.00318
9,CAGATGGAGTG T23A,0.00336
10,CAGATGATGTG T23A,0.00284
11,TAGATGATGTG,0.00308
12,TAGAGGATGTG T23A,0.00277
13,ACAATGGATTG,0.0118
14,AAGAGGATGTG A29T,0.00554
15,TCGATGGATTG T23A,0.116
16,ACAGGGATGTG A29T,0.00506
17,ACGATGGATTG,0.0663
18,TCAGATGGAGT T23A,0.00368
19,ACAGGGATGTG,0.00108
20,TCAGATGATGT T23A,0.00365
21,TCAGTGGATTG T23A,0.0201
22,CAGAGGATGTG T23A,0.00547
23,TCAGAGGAGTG,0.00402
24,ACAGATGTGTG,0.00297

row,Variant,fraction ligated
1,TCAATGATGTG,0.00347
2,TCAGATGGTGT A40G,0.00521
3,TCAGAGGTGTG,0.00137
4,CAGAGGATGTG A29T,0.00872
5,TCGAGGATGTG A29T,0.0105
6,ACAGATGGTTG,0.00164
7,TCAATGGATGT T23A A40G,0.00963
8,ACAGATGATTG,0.00209
9,TCAGAGGAGTG T23A,0
10,TCAGAGGTGTG T23A,0.0038
11,TCAGTGATGTG T23A,0.00342
12,TCAGTGGATGT A40G,0.0137
13,TCAGATGATGT,0.00279
14,TCAGGGATGTG T23A A29T,0.0174
15,TCGATGGATTG,0.127
16,ACAGATGGGTG,0.00695
17,AAGATGGTGTG,0.00306
18,ACAGATGGAGT G35T T38G A40T,0.00236
19,TCGATGGATGT,0.0171
20,TCAGATGGATG T23A,0.00344
21,TCAGTGGATGT T23A A40G,0.0264
22,ACAGATGGAGT G35T A40G,0.0182
23,ACGATGGATGT,0.0146
24,ACAGTGGATTG,0.013

row,Variant,fraction ligated
1,TCAGTGGATTG,0.0102
2,TCAGATGGGTG,0.00281
3,TCGATGGAGTG T23A,0.00843
4,TCAGATGAGTG T23A,0.00316
5,TCAGGGATGTG,0.00365
6,TCAGGGATGTG T23A,0.00448
7,ACAGATGGAGT A40G,0.00662
8,ACAGATGATGT,0.00327
9,ACAGTGGATGT A40G,0.017
10,TCAGATGGAGT T23A G35T A40G,0.0397
11,TCGATGATGTG,0.00384
12,TCAGTGGTGTG T23A,0.00335
13,TCAAGGATGTG A29T,0.00599
14,TAGATGGATTG,0.00552
15,TCAGATGGAGT T23A A40G,0.0153
16,ACAGTGATGTG,0.00182
17,CAGATGGATTG T23A,0.00704
18,TCAGAGGATGT,0.00375
19,TCAATGGATGT,0.00761
20,TAGATGGATGT A40G,0.00383
21,TCGATGATGTG T23A,0.00559
22,CAGATGGATGT T23A,0.00559
23,TCAGTGGATGT T23A,0.00804
24,ACAAGGATGTG A29T,0.00252

row,Variant,fraction ligated
1,CAGAGGATGTG,0.00332
2,TCAGATGTGTG,0.00186
3,TCAATGGAGTG T23A,0.00168
4,TCAGTGGAGTG T23A,0.00419
5,ACAGAGGATTG,0.0039
6,AAGATGGATGT,0.0029
7,TCAATGGTGTG,0.00313
8,ACAGAGGAGTG,0.00131
9,TCGATGGATGT T23A A40G,0.0572
10,TCAAGGATGTG T23A A29T,0.00621
11,ACAAGGATGTG,0.00477
12,TCGATGGAGTG,0.00518
13,CAGATGGAGTG,0.00344
14,TAGATGGATGT T23A,0.00257
15,ACGATGATGTG,0.00228
16,CAGATGGATGT T23A A40G,0.0214
17,TCGAGGATGTG T23A,0
18,ACGAGGATGTG A29T,0.0139
19,ACAGATGGTGT A40G,0.00805
20,TCAGATGGTGT T23A,0.00338
21,TCAGATATGTG,0.000901
22,ACAGAGGATGT,0.00215
23,TCAGATGATGT T23A A40G,0.0104
24,TAGATGATGTG T23A,0.00371

row,Variant,fraction ligated
1,CAGAGGATGTG T23A A29T,0.00891
2,TCAAGGATGTG T23A,0.00271
3,ACAATGGTGTG,0.00249
4,TCGATGGATGT T23A,0.0123
5,TCAATGGATTG,0.0203
6,CAGATGGATTG,0.00607
7,TCAGATGGAGT T23A G35T,0.0188
8,TCAAGGATGTG,0.00272
9,CAGATGGATGT A40G,0.0159
10,ACGATGGAGTG,0.00302
11,TAGATGGATTG T23A,0.00337
12,ACAATGATGTG,0.00381
13,ACAGTGGAGTG,0.00292
14,TCAGAGGATGT T23A A40G,0.00415
15,CAGATGGATGT,0.00272
16,ACAGATGGATG,0.000541
17,TCAGAGATGTG T23A,0.00422
18,TAGAGGATGTG T23A A29T,0.00989
19,TCAGATGGTGT T23A A40G,0.00684
20,TCAATGGATGT A40G,0.0177
21,TCAGAGGATGT T23A,0.00218
22,ACAGAGGTGTG,0.00336
23,TAGATGGAGTG,0.0023
